Target: the molecule itself
Experiment: SDS-PAGE without reducing agent (bands identified by MALDI-MS); 3 ug purified PGLYRP1; Laemmli loading buffer without beta-mercaptoethanol (compared with 5 mM beta-mercaptoethanol); Coomassie stained gel

B1: human recombinant PGLYRP1/Tag-7/PGRP-S with a C-terminal triple DED epitope (natural protein, UniProt O75594 22-196, looked up)
chain: QETEDPACCSPIVPRNEWKALASECAQHLSLPLRYVVVSHTAGSSCNTPASCQQQARNVQHYHMKTLGWCDVGYNFLIGEDGLVYEGRGWNFTGAHSGHLWNPMSIGISFMGNYMDRVPTPQAIRAAQGLLACGVAQGALRSNYVLKGHRDVQRTLSPGNQLYHLIQNWPHYRSP
notes: called full-sized / full-size; On non-reducing SDS-PAGE the preparation is a mix of monomer (~25 kDa) and disulfide-linked homodimer (~60 kDa) of similar intensity; also called recombinant tagged PGLYRP1
stoichiometry N: 2

Reference: article PMC7785527, “Human Short Peptidoglycan Recognition Protein PGLYRP1/Tag-7/PGRP-S Inhibits Listeria monocytogenes Intracellular Survival in Macrophages” (Frontiers in Cellular and Infection Microbiology, 2020)
